# Data: patent publication EP0311107A2, “Anti-HIV active 3'-fluoro-purine-2',3'-dideoxyribosides” (priority 1987, dated 1989)
# B1: beef intestine adenosine deaminase (ADA) (Bos taurus) (protein)
# chain: MAQTPAFNKPKVELHVHLDGAIKPETILYYGRKRGIALPADTPEELQNIIGMDKPLSLPEFLAKFDYYMPAIAGCREAVKRIAYEFVEMKAKDGVVYVEVRYSPHLLANSKVEPIPWNQAEGDLTPDEVVSLVNQGLQEGERDFGVKVRSILCCMRHQPSWSSEVVELCKKYREQTVVAIDLAGDETIEGSSLFPGHVKAYAEAVKSGVHRTVHAGEVGSANVVKEAVDTLKTERLGHGYHTLEDATLYNRLRQENMHFEVCPWSSYLTGAWKPDTEHPVVRFKNDQVNYSLNTDDPLIFKSTLDTDYQMTKNEMGFTEEEFKRLNINAAKSSFLPEDEKKELLDLLYKAYGMPSPASAEQCL
# notes: Kinetic properties of beef intestine adenosine deaminase for 2,6-diaminopurine 2′,3′-dideoxynucleoside analogues; purchased Boehringer Mannheim, Mannheim, West Germany; host or cells: beef intestine (tissue-derived enzyme)
# Tests used:
# [1] = substrate: Nc1nc(N)c2ncn([C@H]3C[C@@H](O)[C@@H](CO)O3)c2n1; experiment: Substrate kinetics for deamination by adenosine deaminase; type: biochemical; conditions: other: beef intestine adenosine deaminase
# Excerpt: (§1) All four ddDAPR analogues were examined for their sus­ceptibility to deamination by beef intestine adenosine de­ aminase (ADA).
# [2] = substrate: Nc1nc(N)c2ncn([C@H]3C[C@H](F)[C@@H](CO)O3)c2n1; experiment: as above; type: biochemical; conditions: other: beef intestine adenosine deaminase
# Excerpt: as §1
protein,measurement,setting,value
B1,Km,[1],74 µM
same,Km,[2],148 µM
same,Vmax,[2],31 µmole/mg protein/min
